# Source: publication PMC8887487 (Nucleic Acids Research, 2022)
# T1: 256–595 domain of Dicer (human, UniProt Q9UPY3 256-595)
# T1 sequence: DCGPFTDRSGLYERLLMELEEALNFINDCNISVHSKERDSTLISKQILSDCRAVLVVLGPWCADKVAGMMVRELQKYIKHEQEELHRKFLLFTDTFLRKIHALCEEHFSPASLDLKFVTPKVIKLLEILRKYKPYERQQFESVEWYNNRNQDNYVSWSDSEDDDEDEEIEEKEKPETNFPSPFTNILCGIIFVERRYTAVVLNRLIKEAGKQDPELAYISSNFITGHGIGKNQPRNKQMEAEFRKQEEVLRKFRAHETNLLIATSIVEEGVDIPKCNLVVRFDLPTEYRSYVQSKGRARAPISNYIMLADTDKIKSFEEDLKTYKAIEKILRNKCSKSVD
# B1: TRBP-dsRBD3 (262–366) (domain or fragment)
# chain: GCTWDSLRNSVGEKILSLRSCSLGSLGALGPACCRVLSELSEEQAFHVSYLDIEELSLSGLCQCLVELSTQPATVCHGSATTREAARGEAARRALQYLKIMAGSK
# B2: His6-tagged TRBP protein (natural protein)
# chain: MSEEEQGSGTTTGCGLPSIEQMLAANPGKTPISLLQEYGTRIGKTPVYDLLKAEGQAHQPNFTFRVTVGDTSCTGQGPSKKAAKHKAAEVALKHLKGGSMLEPALEDSSSFSPLDSSLPEDIPVFTAAAAATPVPSVVLTRSPPMELQPPVSPQQSECNPVGALQELVVQKGWRLPEYTVTQESGPAHRKEFTMTCRVERFIEIGSGTSKKLAKRNAAAKMLLRVHTVPLDARDGNEVEPDDDHFSIGVGSRLDGLRNRGPGCTWDSLRNSVGEKILSLRSCSLGSLGALGPACCRVLSELSEEQAFHVSYLDIEELSLSGLCQCLVELSTQPATVCHGSATTREAARGEAARRALQYLKIMAGSK
# Assays:
# [1] = molecular target: T1, 256–595 domain of Dicer; test: SEC
# [2] = molecular target: GST (glutathione-S-transferase)-tagged RPAP3 (human, UniProt Q9H6T3 1-665); test: pull-down
# Chain of GST (glutathione-S-transferase)-tagged RPAP3 (Q9H6T3 whole entry): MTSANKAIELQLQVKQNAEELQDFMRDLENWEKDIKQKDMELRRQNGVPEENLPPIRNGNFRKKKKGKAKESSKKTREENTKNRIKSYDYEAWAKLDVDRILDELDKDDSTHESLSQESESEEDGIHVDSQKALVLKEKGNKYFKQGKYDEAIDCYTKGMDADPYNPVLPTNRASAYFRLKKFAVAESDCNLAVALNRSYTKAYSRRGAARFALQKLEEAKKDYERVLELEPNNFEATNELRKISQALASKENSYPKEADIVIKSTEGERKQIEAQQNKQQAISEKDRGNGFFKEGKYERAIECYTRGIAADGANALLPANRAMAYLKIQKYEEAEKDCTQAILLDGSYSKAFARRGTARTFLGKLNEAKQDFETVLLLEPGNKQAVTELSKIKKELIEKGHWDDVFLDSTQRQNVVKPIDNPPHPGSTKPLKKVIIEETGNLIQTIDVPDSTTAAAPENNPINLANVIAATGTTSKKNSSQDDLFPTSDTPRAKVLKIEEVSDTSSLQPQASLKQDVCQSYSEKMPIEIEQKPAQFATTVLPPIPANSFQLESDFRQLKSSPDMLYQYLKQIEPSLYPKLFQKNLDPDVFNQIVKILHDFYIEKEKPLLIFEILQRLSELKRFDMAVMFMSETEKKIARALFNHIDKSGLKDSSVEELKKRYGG
Binder,binding result [1],binding result [2]
B1,binds,–
B2,–,binds
